# Source: US20200239579A1 (Genmab, published 2020)
# B1: IgG1-547-FEAR (antibody, V domains shown)
# VH: EVQLLEPGGGLVQPGGSLRLSCEASGSTFSTYAMSWVRQAPGKGLEWVSGFSGSGGFTFYADSVRGRFTISRDSSKNTLFLQMSSLRAEDTAVYYCAIPARGYNYGSFQHWGQGTLVTVSS
# VL: SYVLTQPPSVSVAPGQTARITCGGNNIGSKSVHWYQQKPGQAPVLVVYDDNDRPSGLPERFSGSNSGNTATLTISRVEAGDEADYYCQVWDSSSDHVVFGGGTKLTVLG
# B2: IgG1-338-FEAR (antibody, V domains shown)
# VH: EVQVVESGGGLVQPGGSLRLSCAASGFTFSRFWMSWVRQAPGKGLEWVANIKQDGGEKYYVDSVKGRFTISRDNAKNSLYLQMNSLRGEDTAVYYCARDDNWNGHFDYWGQGTLVTVSS
# VL: DIQMTQSPSTLSASVGDRVTITCRASQSISSWLAWYQQKPGKAPNLLIYKASSLESGVPSRFSGSGSGTEFTLTISSLQPDDFATYYCQQYYGSYITFGQGTRLEIKR
# B3: IgG1-511-LC33S-FEAR (antibody, V domains shown)
# VH: QVQLVQSGSELKKPGASVMVSCKASGYTFTSYVMNWVRQAPGQGLEWMGWINSYTGNPTSAQGFTGRFVFSFDTSVNTAYLQISSLKAEDTAVYYCARGYCTSTSCYLDYWGQGTLVTVSS
# VL: SYELTQPPSVSVSPGHTARITCSGDALPKKYASWFQQKSGQAPVLVIYEDSKRPSGIPERFSGSTSGTMATLTISGAQVEDETDYYCYSADTSGTHRVFGGGTKLTVLG
# Target: T1, PDLoneECDHisCtag (human, UniProt Q9NZQ7 19-238)
# T1 construct: Expressed in HEK-293F cells; theoretical molecular weight 29 kDa; also called recombinant human PD-L1 ECD; human PD-L1 (BLI); not shown: C-terminal His-tag; C-tag
# T1 sequence (Q9NZQ7 19-238, form in doubt): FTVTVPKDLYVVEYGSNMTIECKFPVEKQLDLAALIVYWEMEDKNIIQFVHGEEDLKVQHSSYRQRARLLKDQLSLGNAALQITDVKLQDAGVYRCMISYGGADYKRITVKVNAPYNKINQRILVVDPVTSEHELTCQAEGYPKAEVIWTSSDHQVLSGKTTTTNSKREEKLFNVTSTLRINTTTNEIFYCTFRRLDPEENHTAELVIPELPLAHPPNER
# Assay: BLI cross-block, second antibody on PDLoneECDHisCtag held by immobilised 338; bold = blocking
# Procedure: (§1) Antibody cross-block testing was performed using biolayer interferometry (BLI) on an Octet HTX instrument (ForteBio). Antibodies (20 μg/ml in 10 mM sodium acetate buffer pH 6.0 (ForteBio)) were immobilized on Amine-Reactive 2nd Generation (AR2G) biosensors (ForteBio) according to the instructions of the manufacturer. After a baseline (50 s) in Sample Diluent (ForteBio), biosensors containing immobilized antibodies were loaded for 500 s with PDLoneECDHisCtag (100 nM or 2.7 μg/ml), after which the association response of a second antibody (10 μg/ml) was followed for 500 s. Biosensors were regenerated by using 3 times 5 s alternating exposures to 10 mM glycine pH 2.5 and Sample Diluent. The experiment was repeated with a new set of second antibodies starting from the baseline step. Each biosensor was used 6 times. The experiment was performed at 30° C. using a shaker speed of 1000 rpm. Data was analyzed using Data Analysis Software v9.0.0.12 (ForteBio). The Y-axis was aligned to the association step and Savitzky-Golay filtering was applied. The average buffer response was subtracted from the association response of the second antibody in order to correct for the dissociation of PDLoneECDHisCtag from the immobilized antibody. The corrected association responses were plotted in a matrix format.
row,Binder,association response of the second antibody [nm]
1,B1,0
2,B2,0
3,B3,0

# Target: T2, cynomolgus monkey PD-L1 (full length, on CHO cells) (cynomolgus monkey (Macaca fascicularis), UniProt G7PSE7 19-290)
# T2 construct: whole, on cells; also called PDL1 Mf; cynomolgus PD-L1
# T2 sequence (G7PSE7 entry or part of it): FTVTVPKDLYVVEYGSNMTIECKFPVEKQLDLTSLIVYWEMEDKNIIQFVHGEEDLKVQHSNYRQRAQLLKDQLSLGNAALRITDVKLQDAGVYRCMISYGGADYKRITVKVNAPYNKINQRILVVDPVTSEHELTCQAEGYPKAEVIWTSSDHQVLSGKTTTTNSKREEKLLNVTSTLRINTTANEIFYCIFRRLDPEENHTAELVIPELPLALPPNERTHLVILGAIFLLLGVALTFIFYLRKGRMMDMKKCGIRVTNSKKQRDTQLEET
# Assay: flow cytometry on CHO cells transfected with cynomolgus PD-L1, PE anti-human IgG secondary, MFI (PE)
# Procedure: (§2) Cells (3-5×10⁴ cells/well) were incubated in polystyrene 96-well round-bottom plates (Greiner bio-one, cat. no. 650101) with serial dilutions of antibodies (range 0.0001 to 10 μg/mL in 5-fold dilution steps) in 50 μL PBS/0.1% BSA/0.02% azide (staining buffer) at 4° C. for 30 min.
# (§3) After washing twice in staining buffer, cells were incubated in 50 μL secondary antibody at 4° C. for 30 min. As a secondary antibody, R-Phycoerythrin (PE)-conjugated goat-anti-human IgG F(ab′)₂ (Cat. no. 109-116-098, Jackson ImmunoResearch Laboratories, Inc., West Grove, Pa.) diluted 1:500 in staining buffer, was used for all experiments. Next, cells were washed twice in staining buffer, re-suspended in 20 μL staining buffer and analyzed on an iQue screener (Intellicyt Corporation, USA). Binding curves were analyzed using non-linear regression (sigmoidal dose-response with variable slope) using GraphPad Prism V75.04 software (GraphPad Software, San Diego, Calif., USA).
# Binding to CHO cells expressing cynomolgus PD-L1 was determined by flow cytometry using a method as described above.
row,Binder,EC50 (read off the curve) [µg/mL]
1,B1,~0.02
2,B2,~0.01
3,B3,~0.02

# Target: T1, PDLoneECDHisCtag
# Assay: BLI cross-block, second antibody on PDLoneECDHisCtag held by immobilised MEDI; bold = blocking
# Procedure: as §1
row,Binder,association response of the second antibody [nm]
1,B1,0
2,B2,0
3,B3,0

# Target: T3, human PD-L1 (full length, on cells) (human, UniProt Q9NZQ7 19-290)
# T3 construct: The entry holds the signal peptide; also called CD274; B7H1
# T3 sequence (Q9NZQ7 19-290 limits assumed): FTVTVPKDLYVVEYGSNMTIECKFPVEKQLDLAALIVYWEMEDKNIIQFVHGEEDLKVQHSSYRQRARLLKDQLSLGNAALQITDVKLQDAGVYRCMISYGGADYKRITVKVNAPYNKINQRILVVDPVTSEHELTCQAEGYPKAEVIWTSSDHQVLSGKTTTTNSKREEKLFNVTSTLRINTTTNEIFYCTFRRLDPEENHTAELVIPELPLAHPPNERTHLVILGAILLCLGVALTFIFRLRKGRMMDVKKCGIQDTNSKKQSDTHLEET
# Assay: flow cytometry on MDA-MB-231 cells, PE anti-human IgG secondary, MFI (PE)
# Procedure: as §2, §3
row,Binder,EC50 (read off the curve) [µg/mL]
1,B1,~0.06
2,B2,~0.06
3,B3,~0.04

# Target: T1, PDLoneECDHisCtag
# Assay: BLI cross-block, second antibody on PDLoneECDHisCtag held by immobilised 321; bold = blocking
# Procedure: as §1
row,Binder,association response of the second antibody [nm]
1,B1,0
2,B2,0
3,B3,0

# Target: T4, cynomolgus PD-L1/137-H1 protein (Acro Biosystems, cat. No. PD1-052H4-100) (cynomolgus, UniProt G7PSE7 19-239)
# T4 construct: also called cynomolgus PD-L1 (BLI)
# T4 sequence (G7PSE7 entry or part of it): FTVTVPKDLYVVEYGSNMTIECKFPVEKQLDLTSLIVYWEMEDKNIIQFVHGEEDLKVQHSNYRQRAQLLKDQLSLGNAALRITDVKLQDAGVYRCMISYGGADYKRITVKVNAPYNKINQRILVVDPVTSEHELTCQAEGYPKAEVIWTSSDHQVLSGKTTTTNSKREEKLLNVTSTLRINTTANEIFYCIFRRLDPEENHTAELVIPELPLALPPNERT
# Assay: BLI (Octet HTX), average of 3 experiments; antibody on AHC sensor, cynomolgus PD-L1 protein (Acro Biosystems) as analyte
Binder,Kd [nM],koff [s⁻¹],kon [M⁻¹ s⁻¹]
B1,0.27,0.00012,440000
B2,0.73,0.00028,390000
B3,12,0.0052,450000

# Target: T4, cynomolgus PD-L1/137-H1 protein (Acro …)
# Assay: BLI (Octet HTX), average of 3 experiments
# Procedure: (§4) In a first set of experiments, affinities for recombinant-expressed human PD-L1 protein were determined using Bio-layer interferometry (BLI) on an Octet HTX instrument (ForteBio). Anti-Human IgG Fc Capture (AHC) biosensors (ForteBio) were loaded for 900 s with antibodies (1 μg/ml). […] The experiment was carried out while shaking at 1000 rpm at 30° C. Data was analyzed with Data Analysis Software v9.0.0.12 (ForteBio) using the 1:1 model and a global full fit with 1000 s association time and 200 or 1000 s dissociation time. Data traces were corrected by subtraction of a buffer reference, the Y-axis was aligned to the last 10 s of the baseline, and interstep correction as well as Savitzky-Golay filtering was applied. Data traces with a response <0.05 nm were excluded from analysis. As default, the fit using 1000 s dissociation time was used.
# The experimental set-up was as described above, with the exception of [0466] Loading time of AHC biosensors with antibodies was 600 s; [0467] Baseline was 300 s; [0468]
row,Binder,Fold difference of KD (cynomolgus against human PD-L1) [fold]
1,B1,2.3
2,B2,2.3
3,B3,2.3

# Target: T1, PDLoneECDHisCtag
# Assay: BLI cross-block, second antibody on PDLoneECDHisCtag held by immobilised MPDL; bold = blocking
# Procedure: as §1
row,Binder,association response of the second antibody [nm]
1,B1,0
2,B2,0
3,B3,0

# Target: T3, human PD-L1 (full length, on cells)
# Assay: flow cytometry on PC3 cells, PE anti-human IgG secondary, MFI (PE)
# Procedure: as §2, §3
row,Binder,EC50 (read off the curve) [µg/mL]
1,B1,~0.04
2,B2,~0.03
3,B3,~0.01

# Target: T1, PDLoneECDHisCtag
# Assay: BLI cross-block, second antibody on PDLoneECDHisCtag held by immobilised 516; plain = non-blocking
# Procedure: as §1
row,Binder,association response of the second antibody [nm]
1,B1,0.8
2,B2,1.1
3,B3,1.1

# Target: T1, PDLoneECDHisCtag
# Assay: BLI (Octet HTX), average of 3 experiments; antibody on AHC sensor, PDLoneECD-HisCtag as analyte
# Procedure: as §4
Binder,Kd [nM],koff [s⁻¹],kon [M⁻¹ s⁻¹]
B1,0.12,0.00011,970000
B2,0.31,0.00025,800000
B3,5.1,0.0048,960000
